Data as given in patent US20220112288A1 (published 2022).

How the values were obtained:
[1] = biological target: T1, Recombinant human CD4 (R&D Systems, Cat. 10327-CD) (human, UniProt P01730 26-390, limits assumed); assay: BLI Octet, non-clonal supernatant on AMC sensor, 100 nM human CD4;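 note: hybridoma supernatants diluted 1:3, antibodies captured on AMC biosensors, association and dissociation with CD4 followed, curves smoothed and fit locally with 1:1 binding model for single-point kinetics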
T1 construct: Bought reagent; also called huCD4

[2] = biological target: T1, Recombinant human CD4 (R&D Systems, …); assay: BLI Octet, non-clonal supernatant on AMC sensor, 100 nM human CD4, 1:1 local fit;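 note: Single-concentration kinetics per supernatant, with the 1:1 model fitted across both the association and dissociation phases of the sensorgram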

Response [1]	Kd [2] [nM]	koff [2] [s⁻¹]	kon [2] [M⁻¹ s⁻¹]	Binder
0.26	3	0.0006	200000	75110_12K21A (antibody, V domains shown, Tested as non-clonal AlivaMab Mouse Kappa hybridoma supernatant, captured by anti-mouse IgG Fc sensor) VH: QVQLQQWGAGLLKPSETLSLTCAVSGGSFSGYYWSWIRQPPGKGLEWIGEINHSGSTNCNPSLKSRVTISVDTSNNQFSLKLSSVTAADTAVYYCARVLNYFDYWGQGTLVTVSS VL: DIQMTQSPSSVSASVGDRVTITCRASPDIANWLAWYQQKPGKAPELLIYAASSLQSGVPSRFSGSGSGTDFTLTISSLQPEDFATYFCQQANSFPLTFGGGTKVESK
0.12	2.04	0.000315	154000	75110_13P21A (antibody, V domains shown, Tested as non-clonal AlivaMab Mouse Kappa hybridoma supernatant, captured by anti-mouse IgG Fc sensor) VH: QVQLQQWGAGLLKPSETLSLTCAVSGGSFSGYYWSWIRQPPGKGLEWIGEINHSGSTNCNPSLKSRVTISVDTSNNQFSLKLSSVTAADTAVYYCARVLNYFDYWGQGTLVTVSS VL: DIQMTQSPSSVSASVGDRVTITCRASPDIANWLAWYQQKPGKAPELLIYAASSLQSGVPSRFSGSGSGTDFTLTISSLQPEDFATYFCQQANSFPLTFGGGTKVESK
0.19	3.2	0.00051	160000	75110_13C13A (antibody, V domains shown, Tested as non-clonal AlivaMab Mouse Kappa hybridoma supernatant, captured by anti-mouse IgG Fc sensor) VH: QVQLQQWGAGLLKPSETLSLTCAVSGGSFSGYYWSWIRQPPGKGLEWIGEINHSGSTNCNPSLKSRVTISVDTSKNQFSLKLSSVTAADTAMYYCARVLNFFDYWGQGTLVTVSS VL: DIQMTQTPSSVSASVGDRVTITCRASPGISNWLAWYQQKPGKAPELLIYAASSLQSGVPSRFSGSGSGTDFTLTISSLQPEDFATYFCQQANSFPLTFGGGTKVESK
0.13	15	0.0019	130000	75110_09N20A (antibody, V domains shown, Tested as non-clonal AlivaMab Mouse Kappa hybridoma supernatant, captured by anti-mouse IgG Fc sensor) VH: EVQLVESGGGLVQPGGSLRLSCAASGFTFSSYWMSWVRQAPGKGLEWVANINEDGSEKYYVDSVKGRFTISRDNAKNSLYLQMNSLRAEDTAVYYCVREGGQWLALDYWGQGTLVTVSS VL: DIQMTQSPSSVSASVGDRVTITCRASQGISSWLAWYQQKPGKAPKLLIYAASSLQSGVPSSFSGSGSGTDFTLTINSLQPEDFATYYCQQANSFPWTFGQGTKVAIK
0.12	13	0.0014	100000	75110_05L07A (antibody, V domains shown, Tested as non-clonal AlivaMab Mouse Kappa hybridoma supernatant, captured by anti-mouse IgG Fc sensor) VH: EVQLVESGGGLVQPGGSLRLSCAASGFTFSSYWMSWVRQAPGKGLEWVANINQDGSDKYYVDSVKGRFTISRDNVKNSLYLQINSLRAEDTAVYYCAREGGQWLTLDYWGQGTLVTVSS VL: not shown
0.28	11	0.0013	120000	75110_01J09A (antibody, V domains shown, Tested as non-clonal AlivaMab Mouse Kappa hybridoma supernatant, captured by anti-mouse IgG Fc sensor) VH: EVQLVESGGGLVQPGGSLRLSCVASGFTFSSYWMSWVRQAPGKGLEWVANTKEDGSDKYYVDSVKGRFTICRDNAKNSLYLQMNSLRAEDTAVYYCAREGGQWLALDYWGQGTLVTVSS VL: DIQMTQSPSSVSASVGDRVTINCRASQGISSWLAWYQQKPGKAPNLLIFGASSLQSGVPSRFSGSGFGTDFSLTITTLQPEDFATYHCQQANSFPWTFGQGTKVEIK
0.17	1.8	0.00022	120000	75110_04P08A (antibody, V domains shown, Tested as non-clonal AlivaMab Mouse Kappa hybridoma supernatant, captured by anti-mouse IgG Fc sensor) VH: QVQLQQWGAGLLKPSETLSLTCAVYGGSLSGYYWSWIRQSPGKGLEWIGEINQSGSTNYNPSLKSRVTISVDTSKDQFSLRLTSVTAADTAVYYCTRVLNWFDPWGRGTLVTVSS VL: DIQMTQSPSSVSASVGDRVTLTCRASQDISNWLAWYQQKPGKAPKLLIYAASSLQSGVPSRFSGSGSGTDFTLTISSLQTEDFATYYCQQANSFPYTFGQGTKLEIK
0.24	0.68	0.00013	190000	75110_13P22A (antibody, V domains shown, Tested as non-clonal AlivaMab Mouse Kappa hybridoma supernatant, captured by anti-mouse IgG Fc sensor) VH: QVQLQQWGAGLLKPSETLSLTCAAYGGSFSGYYWSWIRQSPGKGLEWIGEINQSGNTNYNPSLKSRVTISADTSKNQFSLKLSSVTAADTAVYYCARVLNWFDYWGQGILVTVSS VL: DIQMTQSPSSVSASVGDRVTITCRASQGISDWLAWYQQKSGKAPDLLIFAASSLQSGVPSRFSGSGSGTDFTLTISSLQPEDFATYYCQQANSFPYTFGQGTKLEIK
0.03	< 0.001	< 1e-07	200000	75110_05B13A (antibody, V domains shown, Tested as non-clonal AlivaMab Mouse Kappa hybridoma supernatant, captured by anti-mouse IgG Fc sensor) VH: QVLLEQWGAGLLKPSETLSLTCAVYGGSFSGYYWTWIRQPPGKGLEWIGEINHRGSTNYNPSLKSRVTISIDTSKNQFSLKVKSVTAADTAMYYCTRPDSNWFDPWGQGTLVTVSS VL: DIQMTQSPSSVSASVGDRVTITCRASQDISNWLAWYQQKPGKAPKLLIFAASSLQSGVPSRFSGSGSGTDFTLTISSLQPEDFATYYCQQANSFPLTFGGGTKVEIK
0.21	2.8	0.00048	170000	75110_03L12A (antibody, V domains shown, Tested as non-clonal AlivaMab Mouse Kappa hybridoma supernatant, captured by anti-mouse IgG Fc sensor) VH: QVQLQQWGAGLLKPSETLSLTCAVYGGSFSGYYWSWIRQPPGKGLEWIGEINHSGSTNYNPSLKSRVTISVDTSENQFSLTLISVTAADTAVYYCVRLINWFDPWGQGTLVTVSS VL: DIQMTQSPSSVSASVGDRVTITCRASQDISNWLAWYQQKPGKAPKLLIFAASSLQSGVPSRFSGSGSGTDFTLTISSLQPDDFATYYCQQANSFPYTFGQGTNLGIK
0.09	2.5	0.00047	190000	75110_06D16A (antibody, V domains shown, Tested as non-clonal AlivaMab Mouse Kappa hybridoma supernatant, captured by anti-mouse IgG Fc sensor) VH: QVQLQQWGAGLLKPSETLSLTCAVYGGSFSGYYWSWIRQPPGKGLEWIGEINHSGSTNYNPSLKSRVTISVVTSKNQFSLKLSSVTAADTAVYYCARVLNWFDPWGQGTLVTVSS VL: DIQMTQSPSSVSASVGDRVTITCRASQDIADWLAWYQQKPGKAPKLLIYAASSFQSGVPSRFSGSGSGTDFTLTISSLQPEDFATYFCQQANSFPYTFGQGTKLEIK
0.09	< 0.001	< 1e-07	150000	75110_03C01A (antibody, V domains shown, Tested as non-clonal AlivaMab Mouse Kappa hybridoma supernatant, captured by anti-mouse IgG Fc sensor) VH: QVQLQQWGAGLLKPSETLSLTCAVYGGSFSGYYWSWIRQSPGKGLEWIGEINQSGSTNYNPSLKSRVTISVDTSKDQFSLKLSSVTAADTAVYYCARVINWFDSWGQGSLVTVSS VL: DIQMTQSPSSVSASVGDRVTITCRASQGISSWLAWYQQKPGNAPKLLIYDASSFQSGVPSRFSGSGSGTDFTLTISSLQTEDFATYYCQQANSFPYTFGQGTKLEIK
0.106	0.627	9.63e-05	154000	75110_12C19A (antibody, V domains shown, Tested as non-clonal AlivaMab Mouse Kappa hybridoma supernatant, captured by anti-mouse IgG Fc sensor) VH: EVQLVESGGGLVQPGGSLRLSCAASGFTFSSYWMSWVRQAPGKGLEWVANIKEDGSDKYYVDSVKGRFTISRDNAKNSLYLQMNSLRAEDTAVHYCVREGGQWLALDYWGQGTLVTVSS VL: DIQMTQSPSSVSGSVGDRVTITCRASQGISSWLAWYQQKPGKAPKLLIYGASSLQSGVPSRFSGSGSGTDFTLTISSLQPEDFVTYYCQQANSFPWTFGQGTKVEIK
0.09	4.2	0.0012	290000	75110_12H19A (antibody, V domains shown, Tested as non-clonal AlivaMab Mouse Kappa hybridoma supernatant, captured by anti-mouse IgG Fc sensor) VH: EVQLVESGGGLVQPGGSLRLSCAASGFTFSSYWMSWVRQAPGQGLEWVANINEDGNEKYHVDSVKGRLTISRDNAKNSLYLQMNSLRGVDTAVYFCAREGGQWLALDYWGQGALVTVSS VL: DIQMTQSPSSVSASVGDRVSITCRASQGISSWLAWYQQKPGKAPKLLIYGASGLQSGVPSRFSGSGSGTDFTLTISSLQPEDFATYYCQQANSFPWTFGQGTKVEIK
0.21	0.79	0.00013	160000	75110_07B16A (antibody, V domains shown, Tested as non-clonal AlivaMab Mouse Kappa hybridoma supernatant, captured by anti-mouse IgG Fc sensor) VH: QVQLQQWGAGLLKPSETLSLTCAVYGGSFSGYYWSWIRQSPGKGLEWIGEINQSGSTNYNPSLKSRVTISVDTSKDQFSLKLSSVTAADTAVYYCARVINWFDSWGQGSLVTVSS VL: DIQMTQSPSSVSASVGDRVTITCRASQGISSWLAWYQQKPGKAPKLLIYDASSFQSGVPSRFSGSGSGTDFTLTISSLQTDDFATYYCQQANSFPYTFGQGTKLEIK
0.09	9.6	0.0032	330000	75110_12H17A (antibody, V domains shown, Tested as non-clonal AlivaMab Mouse Kappa hybridoma supernatant, captured by anti-mouse IgG Fc sensor) VH: EVQLVESGGGLVQPGGSLRLSCAASGFTFSDYWMSWVRQAPGKGLEWVANIKEDGNEKYYVDSVKGRFTISRDNAKNSLFLQMNSLRAEDTAVYYCAREGGQWLALDYWGQGALVTVSS VL: DIQMTQSPSSVSASVGDRVTITCRASQGISSWLAWYQQKPGKAPKFLISGASSLQSGVPSRFTGSGSGTDFTLTISSLQPEDFATYYCQQANSFPWTFGQGTKVEIK
0.26	1.1	0.00013	110000	75110_01D24A (antibody, V domains shown, Tested as non-clonal AlivaMab Mouse Kappa hybridoma supernatant, captured by anti-mouse IgG Fc sensor) VH: QVQLQQWGAGLLKPSETLSLTCAVYGGSFSGYYWSWIRQPPGKGLEWIGEINHSGSTNYNPSLKSRVTISVDTSENQFSLKLNSVTAADTAVYYCARLVNWFDPWGQGTLVTVSS VL: EIQMTQSPSSVSASVGDRVTITCRASQDISNWLAWYQQKPGKAPNLLIFAASSLQTGVPSRFSGSGSGTDFTLTISSLQPDDFATYYCQQANSFPYSFGQGTNLGIK
0.14	5.2	0.0012	230000	75110_04B08A (antibody, V domains shown, Tested as non-clonal AlivaMab Mouse Kappa hybridoma supernatant, captured by anti-mouse IgG Fc sensor) VH: QVQLVESGGGVVQPGRSLRLSCTASGFNFINYGIHWVRQAPGKGLEWVTIIWYDGSKKYYADSVKGRFAISRDNSKNTLYLQMNSLRAEDTAVYYCAREDDWNDGLAYWGQGTLVTVSS VL: AIQMTQSPSSLSASVGDRVTITCRASQDIRNDLGWYQQKPGKAPNLLIYAASNLQSGVPSRFSGSGSGTDFTLTISSLQPEDFATYYCLQDSNYPRTFGQGTKVEIK
0.08	1.5	0.00051	330000	75110_02E08A (antibody, V domains shown, Tested as non-clonal AlivaMab Mouse Kappa hybridoma supernatant, captured by anti-mouse IgG Fc sensor) VH: QVQLQESGPGLVKPSETLSLTCTVSGGSISTYYWTWIRQPAGKGLEWIGRVYTSGDTNYNPSLKSRVAMSLDTSKNQFSLKLSSVTAADTAVYYCARDSGALYSWNYGDAFDIWGQGTMVTVSS VL: DIQMTQSPSAMSASVGDRVTITCRASQDISNYLAWFQQKPGKVPKRLIYAASSLQSGVPSRFSGSGSGTEFTLTISSLQPEDFATYYCLQHNSYPRTFGQGTKVEIK
